Source: patent US20080045451A1, “Novel thymidylate synthase mutants” (priority 2000, published 2008)
Numbering of substitutions follows the chain as printed. Names and notes keep the numbering of the source. Values joined by “and” are separate entries in the source; they are usually repeats but may differ in a detail not shown here. Equal values may be shown once. “Also recorded” adds a separate entry of the source.

Tests used:
E. coli χ2913 cells = test: Survival of TS-deficient E. coli χ2913 expressing wild type or mutant TS on M9 plates containing 5-FdUR; format: cell-based; conditions: for 5-FdUR concentration at which colonies formed on minimal plates: side-by-side comparison, FIG. 3A, 200 nM clones did not grow at 250 nM; for resistance to 5-FdUR (survival curves), in words: FIG. 3A-3C, single mutants made by site-directed mutagenesis
Procedure: The resistance of each of the 41 mutants to 5-FdUR is expressed as fold enhancement in survival relative to wild type determined in parallel assays. All assays were carried out in duplicate at varying concentration of 5-FdUR and most comparison were repeated in two or more separate experiments. […] Only those experiments in which the survival of the wild type was lower than 1% were included in this tabulation. The percent survival of the wild type at the indicated concentrations of 5-FdUR is as follows: (a) 0.4% in 0.4 nM; (b) <0.1% in a 150 nM; (c) 0.1% at 150 nM; (d) 0 at 300 nM; (e) 0.5% at 150 nM; (f) 0 at 200 nM; (g) 0.95 at 150 nM.
E. coli χ2913 cells harboring plasmids with random substitutions encoding different amino acids, the TS library, were grown overnight at 37° C. in 2×YT medium containing 50 mg/ml of carbenicillin and 50 mg/ml thymidine. Cultures were diluted 1:100 in the same medium and grown at 37° C. until the OD600 reached 0.6 to 0.8. Aliquots (1 ml) of the exponentially growing cells were pelleted and resuspended in M9 salts and plated on three different media. On 1×YT containing […] of carbenicillin and supplemented with 50 mg/ml of thymidine, essentially all cells harboring the plasmid DNA should be recovered. On M9 plates containing carbenicillin, only cells expressing active TS proteins should grow because the medium lacks thymidine. Drug resistant clones were selected on M9 plates containing carbenicillin and increasing concentrations of 5FdUR essentially as previously described (Landis, D. M., Loeb, L. A., 1998, J. Biol. Chem. 273:25809-25817)
To isolate mutants that render E. coli χ2913 resistant to 5-FdUR, the TS library was plated on M9 minimal medium containing 200 or 300 nM 5-FdUR. […] Resistant colonies were selected and plasmid DNA was isolated and re-transformed into fresh χ2913 cells to confirm that the plasmid was the source of the drug-resistant phenotype.
To obtain a profile of amino acid replacements conferring resistance, the remaining, 3′-proximal third of the cDNA from each of the 33 mutants was sequenced. […] Resistance is recorded as percent survival relative to percent survival of host cells harboring wild type TS at 150 nM 5-FdUR of greater. Expression of TS in 10 of the resistant mutants was analyzed by Western blotting with antiserum directed against human TS. The level of expression of wild type TS was more than 2-fold greater than that of any of the mutants, estimated by visual inspection of the gel (data not shown). The mutant proteins may be more labile than the wild type or more susceptible to proteolytic degradation.

bacterial strain χ2913 = test: Testing the 5-FU-resistance of TS-mutants: colonies of transfected χ2913 on 5-FdUR selection plates; format: cell-based; conditions: 200 nM 5-FdUR, FIG. 5
Procedure: The bacterial strain χ2913 was transfected with expressions vectors of the TS-mutants and defined amounts of bacteria in the exponential growth phase were plated on selection plates. The selection plates contained increasing concentrations of 5-fluorodeoxyuridine (0, 75, 150, 200, respectively 300 nM). 5-fluorodeoxyuridine (5-FdUR) is a very effective metabolite, which is generated from 5-fluorouracil in the cell. The selection plates were made of minimal medium, which contained carbenicilline and tetracycline. […] After 36 to 48 hours the number of growing colonies was determined. For this the number of colonies of bacteria, which were transfected with wild type thymidylate synthase was set as 100% and all other numbers of colonies were correspondingly converted to % values.

[1] = Inhibition constants (Ki) for 5-FdUMP from Dixon plot; format: biochemical, human; conditions: 25° C.
Procedure: TS activity was monitored spectrophotometrically by the increase in absorbance at 340 nm that occurs concomitant with the production of H2 folate (Δε=6400 M^−1 cm^−1). The reaction buffer contained 50 mM TES (pH 7.4), 25 mM NaCl, 6.5 mM formaldehyde, 1 mM EDTA and 150 μM 2-mercaptoethanol. When the concentration of dUMP was varied, a high concentration of (6R)—CH2H4 folate was added (3001200 mM of a racemic mixture); when the concentration of (6R)—CH2H4-folate was varied, the concentration of dUMP was 400 μM. Purified wild type or mutant TS protein was added to initiate the reaction at 25° C. Initial velocity measurements were obtained with a Perkin Elmer Lambda Bio 20 UV/VIS spectrophotometer. Steady-state kinetic parameters were derived by a nonlinear least squares fit of the data to the Michaelis Menten equation with KaleidaGraph 3.0 software (Abelbeck Software, Reading Pa.). […] Two dUMP concentrations (30 μM and 300 μM) were used, and FdUMP concentrations were varied. To initiate reactions, CH2H4-folate was added to yield a final concentration of 300 μM of the active isomer.

[2] = Steady-state kinetic analysis of purified His-tagged TS proteins; format: biochemical, human; conditions: 25° C., dUMP 400 μM
From the text: To subclone mutant TS fragments into the pH is vector (a modified pUC12 vector provided by A. Hizi), the TS cDNA was PCR-amplified by using HK-MUT5′ and TSXho3′ (5′-[…]-3′, SEQ ID NO: 4). After digestion with NdeI and XhoI, the amplified fragments were ligated into the NdeISalI digested pH is vector. The reconstructed plasmids were verified by both restriction analysis and DNA sequencing. Wild type and mutant TS proteins, as N-terminal hexahistidine fusions, were then purified by metal chelation chromatography on Ni^2+ affinity resin (His Bind resin and buffer kit, Novagen), as previously described, with minor modifications (see Landis, cited above). An overnight culture of χ2913 cells expressing the His-TS fusion protein was diluted 1:100 into 250 ml of 2×YT medium containing carbenicillin and thymidine. […] The concentration of purified TS was determined by using the Bradford assay.
TS activity was monitored spectrophotometrically by the increase in absorbance at 340 nm that occurs concomitant with the production of H2 folate (Δε=6400 M^−1 cm^−1). […] Steady-state kinetic parameters were derived by a nonlinear least squares fit of the data to the Michaelis Menten equation with KaleidaGraph 3.0 software (Abelbeck Software, Reading Pa.). […]

B1: T51S;G52S (protein)
chain: MPVAGSELPRRPLPPAAQERDAEPRPPHGELQYLGQIQHILRCGVRKDDRSSTGTLSVFGMQARYSLRDEFPLLTTKRVFWKGVLEELLWFIKGSTNAKELSSKGVKIWDANGSRDFLDSLGFSTREEGDLGPVYGFQWRHFGAEYRDMESDYSGQGVDQLQRVIDTIKTNPDDRRIIMCAWNPRDLPLMALPPCHALCQFYVVNSELSCQLYQRSGDMGLGVPFNIASYALLTYMIAHITGLKPGDFIHTLGDAHIYLNHIEPLKIQLQREPRPFPKLRILRKVEKIDDFKAEDFQIEGYNPHPTIKMEMAV
- 5-FdUR concentration at which colonies formed on minimal plates (E. coli χ2913 cells): 200 nM

B2: D116A (protein)
chain: B1 chain with S51T, S52G, D116A
- resistance to 5-FdUR (survival curves), in words (E. coli χ2913 cells): yield resistance

B3: M219V (protein)
chain: B1 chain with S51T, S52G, M219V
- resistance to 5-FdUR (survival curves), in words (E. coli χ2913 cells): yield resistance

B4: D254N (protein)
chain: B1 chain with S51T, S52G, D254N
- resistance to 5-FdUR (survival curves), in words (E. coli χ2913 cells): higher resistance than wild type TS

B5: wild type TS: wild type human thymidylate synthase (SEQ ID NO: 7) (protein, listed as Homo sapiens)
chain: B1 chain with S51T, S52G
- percent survival of the wild type (E. coli χ2913 cells; 0.4 nM 5-FdUR): 0.4%
- percent survival of the wild type (E. coli χ2913 cells; 150 nM 5-FdUR, separate experiments (b), (c), (e), (g)): < 0.1% and 0.1% and 0.5% and 0.95%
- percent survival of the wild type (E. coli χ2913 cells; 200 nM 5-FdUR): 0%
- percent survival of the wild type (E. coli χ2913 cells; 300 nM 5-FdUR): 0%
- survival rate of bacteria transfected with TS expression vector (bacterial strain χ2913): no wild type TSWT survived

B6: T53S (protein)
chain: B1 chain with S51T, S52G, T53S
- resistance to 5-FdUR (survival curves), in words (E. coli χ2913 cells): less resistant than the double mutant, but more resistant than wild type TS; also recorded: less resistant than Y258F

B7: D254A (protein)
chain: B1 chain with S51T, S52G, D254A
- resistance to 5-FdUR (survival curves), in words (E. coli χ2913 cells): higher resistance than wild type TS

B8: Y258F: human TS single mutant Y258F made by site-directed mutagenesis (protein)
chain: B1 chain with S51T, S52G, Y258F
- resistance to 5-FdUR (survival curves), in words (E. coli χ2913 cells): less resistant than the double mutant, but more resistant than wild type TS
- Ki for 5-FdUMP, increase over wild type TS [1]: 3.1 fold

B9: T51S: human TS single mutant T51S (protein)
chain: B1 chain with S52G
- Ki for 5-FdUMP, increase over wild type TS [1]: 11 fold

B10: D254E (protein)
chain: B1 chain with S51T, S52G, D254E
- resistance to 5-FdUR (survival curves), in words (E. coli χ2913 cells): higher resistance than wild type TS
- survival rate of bacteria transfected with TS expression vector (bacterial strain χ2913): 80%

B11: Mutant 302: human TS mutant, substitutions T53S, Y258F (protein, UniProt P04818 2-313, looked up, variant T53S Y258F)
Thymidylate synthase: PVAGSELPRRPLPPAAQERDAEPRPPHGELQYLGQIQHILRCGVRKDDRTGSGTLSVFGMQARYSLRDEFPLLTTKRVFWKGVLEELLWFIKGSTNAKELSSKGVKIWDANGSRDFLDSLGFSTREEGDLGPVYGFQWRHFGAEYRDMESDYSGQGVDQLQRVIDTIKTNPDDRRIIMCAWNPRDLPLMALPPCHALCQFYVVNSELSCQLYQRSGDMGLGVPFNIASYALLTYMIAHITGLKPGDFIHTLGDAHIFLNHIEPLKIQLQREPRPFPKLRILRKVEKIDDFKAEDFQIEGYNPHPTIKMEMAV
- Survival Mutant/WT (fold enhancement in survival relative to wild type) (E. coli χ2913 cells; (g) wild type survival 0.95 at 150 nM 5-FdUR): 220 fold
- resistance to 5-FdUR (survival curves), in words (E. coli χ2913 cells): as resistant or more resistant to elevated concentrations of 5-FdUR than any clone tested
- 5-FdUR concentration at which colonies formed on minimal plates (E. coli χ2913 cells): 250 nM
- Km for CH2H4-folate, fold higher than wild type TS [2]: approximately 10 fold
- Ki for 5-FdUMP, increase over wild type TS [1]: 6 fold
